In this test the target is HAdV-52 short fiber knob (human adenovirus type 52 (HAdV-52)). Description: SPR; 52SFK captured by its His-tag on a Ni-NTA chip (700 RU); fetuin or asialofetuin type II as analytes, two-fold series 125 to 1 μM; 25°C; HBS-EP+; Biacore T100. A general note: Surface plasmon resonance follows binding to a sensor surface in real time, without labels.

B1: sialylated fetuin glycoprotein (natural protein)
chain: IPLDPVAGYKEPACDDPDTEQAALAAVDYINKHLPRGYKHTLNQIDSVKVWPRRPTGEVYDIEIDTLETTCHVLDPTPLANCSVRQQTQHAVEGDCDIHVLKQDGQFSVLFTKCDSSPDSAEDVRKLCPDCPLLAPLNDSRVVHAVEVALATFNAESNGSYLQLVEISRAQFVPLPVSVSVEFAVAATDCIAKEVVDPTKCNLLAEKQYGFCKGSVIQKALGGEDVRVTCTLFQTQPVIPQPQPDGAEAEAPSAVPDAAGPTPSAAGPPVASVVVGPSVVAVPLPLHRAHYDLRHTFSGVASVESSSGEAFHVGKTPIVGQPSIPGGPVRLCPGRIRYFKI
modifications: sialylated glycans
B1 came in with a Kd of 37 µM.

What is called Kd is the concentration at which binding is half-saturated. A high value points to a looser complex.

These data come from paper PMC4335501.
